Experimental findings from patent US6084068, “Elongin A and C functional domains” (Oklahoma Medical Research Foundation, dated 2000) are described below.

Assay [1] concerns the target T1, Elongin BC complex (wild type rat Elongin B and C) (rat, UniProt P62870).
T1 chain 1: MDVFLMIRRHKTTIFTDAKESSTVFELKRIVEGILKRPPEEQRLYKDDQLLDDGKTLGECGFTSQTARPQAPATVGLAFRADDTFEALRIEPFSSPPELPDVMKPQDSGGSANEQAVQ
T1 chain 2: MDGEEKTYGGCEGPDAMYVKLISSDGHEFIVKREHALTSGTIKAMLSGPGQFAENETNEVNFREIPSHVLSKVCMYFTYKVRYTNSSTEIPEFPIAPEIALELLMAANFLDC
Kind of assay: refolded with rat Elongin B and C; TSK SP-NPR HPLC, SDS-PAGE, silver staining. The method, then: Figure 8A: FIG. 8A. Analysis of wild type and mutant C. elegans Elongin A wherein wild type or mutant C. elegans Elongin A was refolded with rat Elongin B and C and subjected to TSK SP-NPR HPLC as described. Aliquots of the peak column fractions were analyzed by SDS-PAGE, and proteins were visualized by silver staining. WT C.e. […] Figure 8B: FIG. 8B. ~2 pmol of human or C. elegans Elongin A proteins were refolded as described (Bradsher, et al., *J Biol Chem* 268: 25587–25593 (1993)) in the presence or absence of ~2 pmol of rat Elongin B and C. Aliquots of refolded protein were assayed for transcriptional activity in oligo dc-tailed template assays performed as described. Reaction mixtures contained no Elongin (lane 1); 3 and 9 μl of renatured human Elongin A without (lanes 2 and 3) or with (lanes 4 and 5) Elongin B and C; 3 and 9 μl of renatured wild type C. elegans Elongin A without (lanes 6 and 7) or with (lanes 8 and 9) Elongin B and C; 3 and 9 μl of renatured C.e. EloA(94–434) (SEQ ID NO:44) without (lanes 10 and 11) or with (lanes 12 and 13) Elongin B and C; 3 and 9 μl of renatured C.e. EloA (202–434) (SEQ ID NO:45) with (lanes 14 and 15) or without (lanes 16, and 17) Elongin B and C.

Assay [2] deals with wild type Elongin B (rat, UniProt P62870). Kind of assay: refolded with wild type Elongin B; TSK DEAE-NPR HPLC, SDS-PAGE, silver staining. The method, then:
Figure 10A: FIG. 10A. […] Aliquots of the indicated column fractions were analyzed by SDS-PAGE, and proteins were visualized by silver staining. Figure 10B: FIG. 10B. N-terminal, C-terminal, and internal Elongin C deletion mutants were assayed for their abilities to form Elongin BC complexes as described.
~6 µg of Elongin B was mixed with ~6 µg of either wild type or mutant Elongin C and diluted 5-fold with 40 mM Hepes-NaOH (pH 7.9), 100 mM KCl, 2 mM DTT, 50 µM ZnSO_4, 0.1 mM EDTA, and 10% (v/v) glycerol. After incubation for 90 min on ice, the mixtures were dialyzed at 4° C. overnight against 40 mM Tris-HCl (pH 7.9), 0.1 mM EDTA, 10% (v/v) glycerol, and 40 mM KCl. Following dialysis, the mixtures were centrifuged at 60,000×g for 15 min at 4° C. The resulting supernatants were applied to TSK DEAE-NPR columns (35 mm×4.6 mm, Toso-Haas) pre-equilibrated in 40 mM Tris-HCl (pH 7.9), 0.1 mM EDTA, 1 mM DTT, 10% (v/v) glycerol, and 40 mM KCl and fractionated using a SMART microchromatography system (Pharmacia) at 8° C. The columns were eluted at 0.3 ml/min with a 3 ml linear gradient from 0.04 to 0.5M KCl in 40 mM Tris-HCl (pH 7.9), 0.1 mM EDTA, 1 mM DTT, and 10% (v/v) glycerol. Aliquots of each column fraction were analyzed by 10% Tris-Tricine SDS-polyacrylamide gel electrophoresis, and the proteins were visualized by silver staining.

For assay [3], the target named is T2, wild type Elongin A (rat).
T2 chain: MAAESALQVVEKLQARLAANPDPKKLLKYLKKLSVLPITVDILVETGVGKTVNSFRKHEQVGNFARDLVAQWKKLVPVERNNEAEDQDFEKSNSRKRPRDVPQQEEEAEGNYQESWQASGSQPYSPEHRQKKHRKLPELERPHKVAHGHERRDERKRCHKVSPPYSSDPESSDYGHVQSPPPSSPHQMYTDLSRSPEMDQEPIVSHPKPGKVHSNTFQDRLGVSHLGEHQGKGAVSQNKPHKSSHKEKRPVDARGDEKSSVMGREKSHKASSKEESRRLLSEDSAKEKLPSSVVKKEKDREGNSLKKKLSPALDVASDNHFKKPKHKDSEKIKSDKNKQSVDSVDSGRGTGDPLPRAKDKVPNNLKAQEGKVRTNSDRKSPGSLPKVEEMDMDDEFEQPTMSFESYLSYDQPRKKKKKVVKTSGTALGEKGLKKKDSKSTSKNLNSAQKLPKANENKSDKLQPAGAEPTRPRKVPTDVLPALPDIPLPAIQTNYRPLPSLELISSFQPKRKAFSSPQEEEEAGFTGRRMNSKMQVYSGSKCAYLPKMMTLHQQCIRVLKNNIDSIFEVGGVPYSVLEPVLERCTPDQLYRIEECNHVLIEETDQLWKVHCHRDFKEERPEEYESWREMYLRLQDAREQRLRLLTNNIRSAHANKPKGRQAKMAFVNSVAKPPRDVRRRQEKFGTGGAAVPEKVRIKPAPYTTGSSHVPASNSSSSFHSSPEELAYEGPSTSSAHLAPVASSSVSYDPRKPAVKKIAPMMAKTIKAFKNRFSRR
The experiment in a line: refolded with wild type Elongin A and B; TSK SP-NPR HPLC, SDS-PAGE, silver staining.

B1: C. elegans Elongin A mutant C.e.EloA(202-434) (other)
chain: KERQKVFAGRRKRVGEGVSTLVSLCQTVLMSHIDMIDHVGIVPFDLLKPVLDHASTDQLRHILDVNPMLVEDADEMFHEMVSREFPKYANREKSGWTWREMYDRLVEKKQKKENDKLEMLTSRIGKSNSAQSQGRQTMVIDMAHTRVRSKSFFNTVKDSQVKMSATPSALQLSQARKNVKIEGKAQLRTITPRGGGVPSTSRSRSNNNNNMNNGLVVKKTAPLMAKCKKMLKR
Consider B1, for which the binding result in assay [1] was “binds”.

B2: Elongin C internal deletion mutant C(Δ21-30) (other)
chain: MDGEEKTYGGCEGPDAMYVKVKREHALTSGTIKAMLSGPGQFAENETNEVNFREIPSHVLSKVCMYFTYKVRYTNSSTEIPEFPIAPEIALELLMAANFLDC
With B2, the binding result in assay [2] and in assay [3] was “no binding” in each case.

B3: wild type C. elegans Elongin A (other)
chain: MPETDEEKVRRYTECLMNGIDPKRALKRLYDLNVSPEVFKSADTVQCVKRYESSPELAKYAKRVRDKLLGGRKREKGGGEDDADIEHTALKKAKKEEVNLDEEFAEAMKSGVSAQASSAPRATVDYSKYKVVKRVEVKVEPKPEPVDVHEQQASSSSMSYQREHQKDYAPVVPTCKPSGQPKKAIPQSKSLHADENMFKPRKERQKVFAGRRKRVGEGVSTLVSLCQTVLMSHIDMIDHVGIVPFDLLKPVLDHASTDQLRHILDVNPMLVEDADEMFHEMVSREFPKYANREKSGWTWREMYDRLVEKKQKKENDKLEMLTSRIGKSNSAQSQGRQTMVIDMAHTRVRSKSFFNTVKDSQVKMSATPSALQLSQARKNVKIEGKAQLRTITPRGGGVPSTSRSRSNNNNNMNNGLVVKKTAPLMAKCKKMLKR
B3: the binding result in assay [1] is given as “binds”.
